Assay results: patent US20050009119A1

Target: human nucleophosmin (NPM; B23) (human) (UniProt P06748)
Assay: Scatchard analysis, increasing amounts of 125I-labelled antibody on intact cells (cell line not stated)

Chain of UniProt P06748 (P06748 whole entry): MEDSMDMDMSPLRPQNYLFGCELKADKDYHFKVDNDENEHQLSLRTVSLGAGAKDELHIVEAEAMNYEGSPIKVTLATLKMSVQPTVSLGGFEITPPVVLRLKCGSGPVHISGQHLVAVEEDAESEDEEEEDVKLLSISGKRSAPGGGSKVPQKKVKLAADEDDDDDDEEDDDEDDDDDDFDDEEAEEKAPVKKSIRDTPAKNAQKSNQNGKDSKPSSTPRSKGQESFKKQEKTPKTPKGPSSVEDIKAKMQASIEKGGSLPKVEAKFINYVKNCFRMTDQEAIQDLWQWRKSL

mouse monoclonal anti-nucleophosmin antibody (Zymed Laboratories, catalog no. 32-5200)
Kd: 8.2 nM
